Reference: patent publication US20250218531A1 (ABSCI, published 2025)
Changes are numbered by the printed parent chain. Several values for one entry are separate records, joined by “and”; a condition that tells them apart may be missing. Identical values can stand only once.

B1: Trastuzumab HCDR3 variant ARYGGYGGYYFDY (Fab, V domains shown)
VH: EVQLVESGGGLVQPGGSLRLSCAASGFNIKDTYIHWVRQAPGKGLEWVARIYPTNGYTRYADSVKGRFTISADTSKNTAYLQMNSLRAEDTAVYYCARYGGYGGYYFDYWGQGTLVTVSS
VL: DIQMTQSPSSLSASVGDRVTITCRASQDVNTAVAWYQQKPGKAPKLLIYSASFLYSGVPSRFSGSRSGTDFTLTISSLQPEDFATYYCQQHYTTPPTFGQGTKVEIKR
B2: Trastuzumab HCDR3 variant AKYAYYGDFWGSV (Fab, V domains shown)
VH: B1 VH with R98K, G100A, G101Y, G104D, Y105F, Y106W, F107G, D108S, Y109V
VL: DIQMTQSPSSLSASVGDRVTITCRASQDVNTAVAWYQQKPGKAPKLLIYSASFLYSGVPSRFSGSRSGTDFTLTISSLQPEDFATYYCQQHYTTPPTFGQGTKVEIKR
B3: Trastuzumab HCDR3 variant AKYGGVGYYAMDY (Fab, V domains shown)
VH: B1 VH with R98K, Y102V, G104Y, Y106A, F107M
VL: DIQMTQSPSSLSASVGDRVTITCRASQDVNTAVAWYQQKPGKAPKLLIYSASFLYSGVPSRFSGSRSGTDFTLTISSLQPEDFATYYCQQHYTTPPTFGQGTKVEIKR
B4: Trastuzumab HCDR3 variant AATYGGLGDMSSI (Fab, V domains shown)
VH: B1 VH with R98A, Y99T, G100Y, Y102G, G103L, Y105D, Y106M, F107S, D108S, Y109I
VL: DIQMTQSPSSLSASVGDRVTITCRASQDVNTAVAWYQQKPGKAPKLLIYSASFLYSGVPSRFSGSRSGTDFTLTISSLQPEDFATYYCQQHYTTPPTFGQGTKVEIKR
B5: Trastuzumab HCDR3 variant ARHFGVASYSFDY (Fab, V domains shown)
VH: B1 VH with Y99H, G100F, Y102V, G103A, G104S, Y106S
VL: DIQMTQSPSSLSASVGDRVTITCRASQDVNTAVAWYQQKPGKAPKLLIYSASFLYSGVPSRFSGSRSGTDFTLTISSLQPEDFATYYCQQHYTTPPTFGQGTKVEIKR
B6: Trastuzumab HCDR3 variant AKYINAYSYAFFD (Fab, V domains shown)
VH: B1 VH with R98K, G100I, G101N, Y102A, G103Y, G104S, Y106A, D108F, Y109D
VL: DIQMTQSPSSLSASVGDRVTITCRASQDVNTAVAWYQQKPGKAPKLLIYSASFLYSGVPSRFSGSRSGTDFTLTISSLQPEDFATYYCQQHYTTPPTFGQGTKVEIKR
B7: Trastuzumab HCDR3 variant AKFAYYGPYHFDP (Fab, V domains shown)
VH: B1 VH with R98K, Y99F, G100A, G101Y, G104P, Y106H, Y109P
VL: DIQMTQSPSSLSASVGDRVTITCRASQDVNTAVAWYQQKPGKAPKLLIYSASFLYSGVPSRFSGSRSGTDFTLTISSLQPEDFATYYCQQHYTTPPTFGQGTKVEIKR
B8: Trastuzumab HCDR3 variant ANDIYIQGYDLNR (Fab, V domains shown)
VH: B1 VH with R98N, Y99D, G100I, G101Y, Y102I, G103Q, Y106D, F107L, D108N, Y109R
VL: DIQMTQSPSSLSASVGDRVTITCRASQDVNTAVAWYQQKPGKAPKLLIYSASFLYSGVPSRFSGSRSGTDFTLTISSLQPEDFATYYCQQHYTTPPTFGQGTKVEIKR
B9: Trastuzumab HCDR3 variant AKYGATGWYYFDY (Fab, V domains shown)
VH: B1 VH with R98K, G101A, Y102T, G104W
VL: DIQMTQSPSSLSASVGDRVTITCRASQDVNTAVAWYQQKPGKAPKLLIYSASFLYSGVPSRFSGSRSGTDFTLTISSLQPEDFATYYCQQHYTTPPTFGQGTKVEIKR
B10: Trastuzumab HCDR3 variant AKYLGQEAYAYFS (Fab, V domains shown)
VH: B1 VH with R98K, G100L, Y102Q, G103E, G104A, Y106A, F107Y, D108F, Y109S
VL: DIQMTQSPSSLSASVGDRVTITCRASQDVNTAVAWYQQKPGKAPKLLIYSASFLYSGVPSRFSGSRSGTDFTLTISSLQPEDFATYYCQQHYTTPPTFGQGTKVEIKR
B11: Trastuzumab HCDR3 variant ARENDGSPGSFEY (Fab, V domains shown)
VH: B1 VH with Y99E, G100N, G101D, Y102G, G103S, G104P, Y105G, Y106S, D108E
VL: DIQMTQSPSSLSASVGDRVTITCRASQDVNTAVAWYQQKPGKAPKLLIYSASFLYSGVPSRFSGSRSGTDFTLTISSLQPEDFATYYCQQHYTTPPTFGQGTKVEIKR
B12: Trastuzumab HCDR3 variant ARYGYYGYYMDY (Fab, V domains shown)
VH: EVQLVESGGGLVQPGGSLRLSCAASGFNIKDTYIHWVRQAPGKGLEWVARIYPTNGYTRYADSVKGRFTISADTSKNTAYLQMNSLRAEDTAVYYCARYGYYGYYMDYWGQGTLVTVSS
VL: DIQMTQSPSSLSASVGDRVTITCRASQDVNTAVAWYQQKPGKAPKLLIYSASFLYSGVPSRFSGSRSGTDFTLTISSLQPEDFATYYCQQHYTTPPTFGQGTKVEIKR
B13: Trastuzumab HCDR3 variant TRFRSFFYNFDY (Fab, V domains shown)
VH: B12 VH with A97T, Y99F, G100R, Y101S, Y102F, G103F, Y105N, M106F
VL: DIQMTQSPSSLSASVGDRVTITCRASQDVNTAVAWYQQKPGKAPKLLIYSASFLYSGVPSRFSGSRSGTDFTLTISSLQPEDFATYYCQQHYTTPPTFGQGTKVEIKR
B14: Trastuzumab HCDR3 variant TRNSFGFYAMDY (Fab, V domains shown)
VH: B12 VH with A97T, Y99N, G100S, Y101F, Y102G, G103F, Y105A
VL: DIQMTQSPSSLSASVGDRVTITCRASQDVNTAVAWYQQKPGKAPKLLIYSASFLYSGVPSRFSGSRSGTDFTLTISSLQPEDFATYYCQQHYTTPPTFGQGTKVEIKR
B15: Trastuzumab HCDR3 variant ARYWMGVYEFDY (Fab, V domains shown)
VH: B12 VH with G100W, Y101M, Y102G, G103V, Y105E, M106F
VL: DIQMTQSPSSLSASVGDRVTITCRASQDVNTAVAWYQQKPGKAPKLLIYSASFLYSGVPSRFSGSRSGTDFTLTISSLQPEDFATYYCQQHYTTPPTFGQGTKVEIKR
B16: Trastuzumab HCDR3 variant ARYYYGFYYFDY (Fab, V domains shown)
VH: B12 VH with G100Y, Y102G, G103F, M106F
VL: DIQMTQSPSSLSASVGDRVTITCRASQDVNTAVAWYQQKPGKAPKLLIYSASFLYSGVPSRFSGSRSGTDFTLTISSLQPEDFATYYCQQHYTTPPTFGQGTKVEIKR
B17: Trastuzumab HCDR3 variant VRYGGDYYYFDY (Fab, V domains shown)
VH: B12 VH with A97V, Y101G, Y102D, G103Y, M106F
VL: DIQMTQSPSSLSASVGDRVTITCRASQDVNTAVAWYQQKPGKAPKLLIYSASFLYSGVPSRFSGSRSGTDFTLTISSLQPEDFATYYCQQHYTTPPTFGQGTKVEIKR
B18: Trastuzumab HCDR3 variant ARYYYYSYAMDY (Fab, V domains shown)
VH: B12 VH with G100Y, G103S, Y105A
VL: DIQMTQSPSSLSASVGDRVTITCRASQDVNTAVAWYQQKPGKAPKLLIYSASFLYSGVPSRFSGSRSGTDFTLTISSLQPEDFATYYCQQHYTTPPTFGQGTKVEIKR
B19: Trastuzumab HCDR3 variant ARYPPGYYIMDF (Fab, V domains shown)
VH: B12 VH with G100P, Y101P, Y102G, G103Y, Y105I, Y108F
VL: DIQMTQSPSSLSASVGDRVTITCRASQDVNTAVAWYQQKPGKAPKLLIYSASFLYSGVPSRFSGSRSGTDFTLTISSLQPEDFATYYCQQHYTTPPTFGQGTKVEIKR
B20: Trastuzumab HCDR3 variant VRYGYGYYAMDY (Fab, V domains shown)
VH: B12 VH with A97V, Y102G, G103Y, Y105A
VL: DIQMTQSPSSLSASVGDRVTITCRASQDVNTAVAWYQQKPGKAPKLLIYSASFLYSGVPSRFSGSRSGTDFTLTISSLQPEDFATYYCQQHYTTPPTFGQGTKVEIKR
B21: Trastuzumab HCDR3 variant VRYGGTYYYFDY (Fab, V domains shown)
VH: B12 VH with A97V, Y101G, Y102T, G103Y, M106F
VL: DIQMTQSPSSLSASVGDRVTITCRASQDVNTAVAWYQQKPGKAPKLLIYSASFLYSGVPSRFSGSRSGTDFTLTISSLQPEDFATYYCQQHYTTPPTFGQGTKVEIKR
B22: Trastuzumab HCDR3 variant VRWGGYYYYFDY (Fab, V domains shown)
VH: B12 VH with A97V, Y99W, Y101G, G103Y, M106F
VL: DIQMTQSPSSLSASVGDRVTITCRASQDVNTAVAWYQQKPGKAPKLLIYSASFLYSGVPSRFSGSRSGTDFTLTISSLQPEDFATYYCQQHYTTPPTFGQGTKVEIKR
B23: Trastuzumab HCDR3 variant ATYSPGAYYYGP (Fab, V domains shown)
VH: B12 VH with R98T, G100S, Y101P, Y102G, G103A, M106Y, D107G, Y108P
VL: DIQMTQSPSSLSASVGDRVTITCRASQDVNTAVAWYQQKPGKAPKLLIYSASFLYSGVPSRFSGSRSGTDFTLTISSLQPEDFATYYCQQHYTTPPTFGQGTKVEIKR
B24: Trastuzumab HCDR3 variant ATWHYGGYFMSG (Fab, V domains shown)
VH: B12 VH with R98T, Y99W, G100H, Y102G, Y105F, D107S, Y108G
VL: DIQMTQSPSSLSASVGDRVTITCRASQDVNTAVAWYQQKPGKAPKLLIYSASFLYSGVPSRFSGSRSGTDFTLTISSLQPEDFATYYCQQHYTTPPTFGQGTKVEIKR
B25: Trastuzumab HCDR3 variant ATYGYGYYYFDY (Fab, V domains shown)
VH: B12 VH with R98T, Y102G, G103Y, M106F
VL: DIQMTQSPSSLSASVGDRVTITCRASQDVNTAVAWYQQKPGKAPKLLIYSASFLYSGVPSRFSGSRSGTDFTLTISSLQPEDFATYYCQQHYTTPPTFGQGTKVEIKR
B26: Trastuzumab HCDR3 variant ATWYGGNYHMYP (Fab, V domains shown)
VH: B12 VH with R98T, Y99W, G100Y, Y101G, Y102G, G103N, Y105H, D107Y, Y108P
VL: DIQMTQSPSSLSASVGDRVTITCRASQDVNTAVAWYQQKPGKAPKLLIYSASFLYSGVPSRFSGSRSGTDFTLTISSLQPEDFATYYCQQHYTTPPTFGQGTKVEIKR
B27: Trastuzumab HCDR3 variant VRYGYGYYYFDY (Fab, V domains shown)
VH: B12 VH with A97V, Y102G, G103Y, M106F
VL: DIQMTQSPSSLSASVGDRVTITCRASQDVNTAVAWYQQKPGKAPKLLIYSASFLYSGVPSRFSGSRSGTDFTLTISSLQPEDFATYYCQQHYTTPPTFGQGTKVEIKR
B28: Trastuzumab HCDR3 variant TRYGAPYFYFDY (Fab, V domains shown)
VH: B12 VH with A97T, Y101A, Y102P, G103Y, Y104F, M106F
VL: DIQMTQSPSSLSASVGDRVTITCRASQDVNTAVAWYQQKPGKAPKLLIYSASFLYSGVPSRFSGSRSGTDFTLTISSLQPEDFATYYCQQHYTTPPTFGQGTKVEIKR
B29: Trastuzumab HCDR3 variant TRYGGGYYYFDY (Fab, V domains shown)
VH: B12 VH with A97T, Y101G, Y102G, G103Y, M106F
VL: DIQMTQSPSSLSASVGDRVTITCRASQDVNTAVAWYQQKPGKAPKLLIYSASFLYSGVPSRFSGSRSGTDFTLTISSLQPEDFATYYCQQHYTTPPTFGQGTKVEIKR
B30: Trastuzumab HCDR3 variant VRWRSDFYYFDY (Fab, V domains shown)
VH: B12 VH with A97V, Y99W, G100R, Y101S, Y102D, G103F, M106F
VL: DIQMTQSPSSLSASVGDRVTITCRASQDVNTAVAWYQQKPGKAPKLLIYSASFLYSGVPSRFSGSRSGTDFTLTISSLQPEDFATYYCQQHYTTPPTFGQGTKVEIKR
B31: Trastuzumab HCDR3 variant TRYYYGLYYFDY (Fab, V domains shown)
VH: B12 VH with A97T, G100Y, Y102G, G103L, M106F
VL: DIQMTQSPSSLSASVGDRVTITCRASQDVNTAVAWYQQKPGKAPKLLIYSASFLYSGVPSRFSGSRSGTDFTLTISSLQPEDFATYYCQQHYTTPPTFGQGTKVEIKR
B32: Trastuzumab HCDR3 variant ARYPSVVYAFGI (Fab, V domains shown)
VH: B12 VH with G100P, Y101S, Y102V, G103V, Y105A, M106F, D107G, Y108I
VL: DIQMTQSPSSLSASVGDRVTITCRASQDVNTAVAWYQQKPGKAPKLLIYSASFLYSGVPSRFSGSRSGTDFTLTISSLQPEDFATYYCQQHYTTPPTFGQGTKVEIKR
B33: Trastuzumab HCDR3 variant STYARDYYHFGS (Fab, V domains shown)
VH: B12 VH with A97S, R98T, G100A, Y101R, Y102D, G103Y, Y105H, M106F, D107G, Y108S
VL: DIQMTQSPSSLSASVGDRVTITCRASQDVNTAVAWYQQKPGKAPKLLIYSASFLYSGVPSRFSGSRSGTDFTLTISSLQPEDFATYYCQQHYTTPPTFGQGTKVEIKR
B34: Trastuzumab HCDR3 variant ARYGYYSYAMDY (Fab, V domains shown)
VH: B12 VH with G103S, Y105A
VL: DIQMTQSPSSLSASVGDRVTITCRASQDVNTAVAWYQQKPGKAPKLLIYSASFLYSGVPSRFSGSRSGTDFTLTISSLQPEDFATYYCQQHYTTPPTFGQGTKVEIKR
B35: Trastuzumab HCDR3 variant ATYGRDYYHFAS (Fab, V domains shown)
VH: B12 VH with R98T, Y101R, Y102D, G103Y, Y105H, M106F, D107A, Y108S
VL: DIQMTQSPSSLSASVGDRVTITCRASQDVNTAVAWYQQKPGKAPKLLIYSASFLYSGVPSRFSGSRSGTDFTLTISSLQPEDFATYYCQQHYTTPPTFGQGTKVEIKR
B36: Trastuzumab HCDR3 variant ATYSFGAYYYVF (Fab, V domains shown)
VH: B12 VH with R98T, G100S, Y101F, Y102G, G103A, M106Y, D107V, Y108F
VL: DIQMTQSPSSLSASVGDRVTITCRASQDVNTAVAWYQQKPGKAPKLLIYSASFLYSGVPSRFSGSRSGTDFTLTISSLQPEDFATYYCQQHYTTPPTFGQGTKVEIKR
B37: Trastuzumab HCDR3 variant VRYGYDYYWFDY (Fab, V domains shown)
VH: B12 VH with A97V, Y102D, G103Y, Y105W, M106F
VL: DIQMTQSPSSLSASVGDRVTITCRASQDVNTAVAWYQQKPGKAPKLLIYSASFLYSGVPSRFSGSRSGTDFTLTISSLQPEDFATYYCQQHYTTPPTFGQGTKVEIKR
B38: Trastuzumab HCDR3 variant AVSADIMYGVSV (Fab, V domains shown)
VH: B12 VH with R98V, Y99S, G100A, Y101D, Y102I, G103M, Y105G, M106V, D107S, Y108V
VL: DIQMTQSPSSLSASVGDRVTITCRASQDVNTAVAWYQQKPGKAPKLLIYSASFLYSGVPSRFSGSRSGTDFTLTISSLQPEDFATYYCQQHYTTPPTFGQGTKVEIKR
B39: Trastuzumab HCDR3 variant VTYGTTYYHFGS (Fab, V domains shown)
VH: B12 VH with A97V, R98T, Y101T, Y102T, G103Y, Y105H, M106F, D107G, Y108S
VL: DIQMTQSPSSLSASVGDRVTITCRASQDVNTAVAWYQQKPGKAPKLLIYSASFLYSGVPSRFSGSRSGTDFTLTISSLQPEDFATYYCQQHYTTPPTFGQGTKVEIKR
B40: Trastuzumab HCDR3 variant ARYPGYYYYFDY (Fab, V domains shown)
VH: B12 VH with G100P, Y101G, G103Y, M106F
VL: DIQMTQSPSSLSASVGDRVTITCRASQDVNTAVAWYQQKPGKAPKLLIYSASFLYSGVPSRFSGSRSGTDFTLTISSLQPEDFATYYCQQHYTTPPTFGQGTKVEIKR
B41: Trastuzumab HCDR3 variant ARYTFGAYYYSD (Fab, V domains shown)
VH: B12 VH with G100T, Y101F, Y102G, G103A, M106Y, D107S, Y108D
VL: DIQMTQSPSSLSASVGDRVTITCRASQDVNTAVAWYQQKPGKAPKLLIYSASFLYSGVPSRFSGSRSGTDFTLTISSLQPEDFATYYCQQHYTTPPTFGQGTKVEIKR
B42: Trastuzumab HCDR3 variant VRYGYGYYYMDY (Fab, V domains shown)
VH: B12 VH with A97V, Y102G, G103Y
VL: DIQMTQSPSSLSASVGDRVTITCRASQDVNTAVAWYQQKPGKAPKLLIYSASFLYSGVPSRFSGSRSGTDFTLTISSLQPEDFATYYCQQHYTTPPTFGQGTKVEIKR
B43: Trastuzumab HCDR3 variant ARYRHWYYDYDY (Fab, V domains shown)
VH: B12 VH with G100R, Y101H, Y102W, G103Y, Y105D, M106Y
VL: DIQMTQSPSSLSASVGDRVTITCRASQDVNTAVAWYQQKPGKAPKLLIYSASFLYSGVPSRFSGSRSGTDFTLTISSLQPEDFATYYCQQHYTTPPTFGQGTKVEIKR
B44: Trastuzumab HCDR3 variant TRYGYGYYYMDY (Fab, V domains shown)
VH: B12 VH with A97T, Y102G, G103Y
VL: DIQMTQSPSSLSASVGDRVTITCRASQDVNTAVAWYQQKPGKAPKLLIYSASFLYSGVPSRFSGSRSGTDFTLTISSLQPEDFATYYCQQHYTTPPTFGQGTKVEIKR
B45: Trastuzumab HCDR3 variant TRYGYGYYYFDY (Fab, V domains shown)
VH: B12 VH with A97T, Y102G, G103Y, M106F
VL: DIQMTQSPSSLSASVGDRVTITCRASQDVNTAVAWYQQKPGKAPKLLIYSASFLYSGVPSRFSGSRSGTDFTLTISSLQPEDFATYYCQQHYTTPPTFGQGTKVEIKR
B46: Trastuzumab HCDR3 variant AVYSPDFYYLGY (Fab, V domains shown)
VH: B12 VH with R98V, G100S, Y101P, Y102D, G103F, M106L, D107G
VL: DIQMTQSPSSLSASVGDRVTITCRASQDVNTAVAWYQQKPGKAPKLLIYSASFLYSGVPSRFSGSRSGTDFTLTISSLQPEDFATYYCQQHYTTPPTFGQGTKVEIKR
B47: Trastuzumab HCDR3 variant ARYGYYLYAMDY (Fab, V domains shown)
VH: B12 VH with G103L, Y105A
VL: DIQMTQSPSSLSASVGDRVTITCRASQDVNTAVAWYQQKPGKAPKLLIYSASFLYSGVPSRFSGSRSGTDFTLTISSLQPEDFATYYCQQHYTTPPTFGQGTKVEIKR
B48: Trastuzumab HCDR3 variant VRYGGGYYYFDV (Fab, V domains shown)
VH: B12 VH with A97V, Y101G, Y102G, G103Y, M106F, Y108V
VL: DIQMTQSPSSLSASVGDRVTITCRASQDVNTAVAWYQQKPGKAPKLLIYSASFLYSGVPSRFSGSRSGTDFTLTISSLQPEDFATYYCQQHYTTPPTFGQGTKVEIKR
B49: Trastuzumab HCDR3 variant TRFLIGSYYYDY (Fab, V domains shown)
VH: B12 VH with A97T, Y99F, G100L, Y101I, Y102G, G103S, M106Y
VL: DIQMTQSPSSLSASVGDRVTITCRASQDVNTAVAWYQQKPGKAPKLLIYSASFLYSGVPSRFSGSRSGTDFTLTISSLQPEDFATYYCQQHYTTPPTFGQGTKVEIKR
B50: Trastuzumab HCDR3 variant TRYGSYYYYFDY (Fab, V domains shown)
VH: B12 VH with A97T, Y101S, G103Y, M106F
VL: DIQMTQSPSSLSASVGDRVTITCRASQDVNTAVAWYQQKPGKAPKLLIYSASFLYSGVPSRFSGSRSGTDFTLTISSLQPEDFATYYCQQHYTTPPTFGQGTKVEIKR

The binders below were run against T1, HER2 (human epidermal growth factor receptor 2) (human, UniProt P04626 23-629) (assay: SPR).
T1 construct: also called Antigen: HER2

Row | Binder | Kd | log(KD (M))
1 | B1 | 14 nM | -7.85
2 | B2 | 17.5 nM | -7.76
3 | B3 | 25.2 nM | -7.6
4 | B4 | 27 nM | -7.57
5 | B5 | 13.9 nM | -7.86
6 | B6 | 17 nM and 16.9 nM | -7.77
7 | B7 | 10.1 nM | -7.99
8 | B8 | 3.99 nM | -8.4
9 | B9 | 14.1 nM | -7.85
10 | B10 | 14.9 nM | -7.83
11 | B11 | 23.1 nM | -7.64
12 | B12 | 23.3 nM | -7.63
13 | B13 | 5.4 nM | -8.27
14 | B14 | 19 nM | -7.72
15 | B15 | 21.7 nM | -7.66
16 | B16 | 1.21 nM | -8.92
17 | B17 | 21.9 nM | -7.66
18 | B18 | 6.9 nM | -8.16
19 | B19 | 23.5 nM | -7.63
20 | B20 | 10.7 nM | -7.97
21 | B21 | 15.4 nM | -7.81
22 | B22 | 6.35 nM | -8.2
23 | B23 | 17.3 nM and 17.2 nM | -7.76
24 | B24 | 22.5 nM and 22.4 nM | -7.65
25 | B25 | 15.5 nM | -7.81

Row | Binder | Kd | log(KD (M))
26 | B26 | 11.2 nM | -7.95
27 | B27 | 2.77 nM | -8.56
28 | B28 | 18 nM | -7.75
29 | B29 | 3.59 nM | -8.45
30 | B30 | 4.95 nM | -8.31
31 | B31 | 3.02 nM | -8.52
32 | B32 | 22.3 nM | -7.65
33 | B33 | 12.6 nM | -7.9
34 | B34 | 10.2 nM | -7.99
35 | B35 | 7.55 nM | -8.12
36 | B36 | 4.73 nM | -8.33
37 | B37 | 10.4 nM | -7.98
38 | B38 | 22.9 nM | -7.64
39 | B39 | 24.1 nM | -7.62
40 | B40 | 17.9 nM | -7.75
41 | B41 | 10.9 nM | -7.96
42 | B42 | 5.48 nM | -8.26
43 | B43 | 6.15 nM | -8.21
44 | B44 | 5.25 nM | -8.28
45 | B45 | 2.73 nM | -8.56
46 | B46 | 2.06 nM | -8.69
47 | B47 | 10.1 nM | -7.99
48 | B48 | 3.96 nM | -8.4
49 | B49 | 11.6 nM | -7.93
50 | B50 | 3.18 nM | -8.5
